Experimental findings from US20210095036A1 (University of Pennsylvania, published 2021) are described below.

Experiment [1] deals with T1, GFRα4 isoform a (GFRα4a), Fc fusion with 6 His (human).
T1 construct: the entry holds the whole fusion; also called GFR4α4a; immobilized GFRα4 isoform a
T1 chain: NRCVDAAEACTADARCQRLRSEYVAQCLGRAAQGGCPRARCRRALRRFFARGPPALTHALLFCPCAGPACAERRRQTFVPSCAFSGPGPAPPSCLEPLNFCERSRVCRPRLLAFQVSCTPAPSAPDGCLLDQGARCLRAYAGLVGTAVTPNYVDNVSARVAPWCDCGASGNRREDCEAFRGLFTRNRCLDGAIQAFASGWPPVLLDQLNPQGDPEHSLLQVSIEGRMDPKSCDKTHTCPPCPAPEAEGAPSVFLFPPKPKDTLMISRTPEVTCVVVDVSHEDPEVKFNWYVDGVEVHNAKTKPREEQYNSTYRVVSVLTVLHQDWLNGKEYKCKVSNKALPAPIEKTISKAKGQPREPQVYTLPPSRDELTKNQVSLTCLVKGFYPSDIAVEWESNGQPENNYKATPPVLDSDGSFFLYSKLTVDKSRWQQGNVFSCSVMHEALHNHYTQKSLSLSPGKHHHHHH
As to the kind of experiment: phage ELISA, immobilized GFRα4a; first token of the cell (GFRα4b: NT). An excerpt:
(§1) To perform these ELISAs, the GFRα4a isoform comprising a portion of GFRα4a (Asn24 -Ser245, UniProt accession #Q9GZZ7-2) was used, followed by a Factor Xa cleavage site/linker, a portion of optimized IgG1 Fc domain (Pro100-Lys330), and 6 His residues for purification. The GFRα4b isoform comprised a portion of GFRα4b (Asn24-Va1274, UniProt #Q9GZZ7-1), followed by a TEV cleavage site linker, and a portion of human IgG1 Fc domain (Asp104-Lys330).

Experiment [2] deals with T2, GFRα4 isoform b (GFRα4b), Fc fusion (human).
T2 construct: the entry holds the whole fusion; also called GFR4α4b; GFRα4-Fc
The experiment can be described thus: phage ELISA, immobilized GFRα4b; second token of the cell.
Description: as §1
Target sequence in this assay (chain, as listed by the source limits assumed): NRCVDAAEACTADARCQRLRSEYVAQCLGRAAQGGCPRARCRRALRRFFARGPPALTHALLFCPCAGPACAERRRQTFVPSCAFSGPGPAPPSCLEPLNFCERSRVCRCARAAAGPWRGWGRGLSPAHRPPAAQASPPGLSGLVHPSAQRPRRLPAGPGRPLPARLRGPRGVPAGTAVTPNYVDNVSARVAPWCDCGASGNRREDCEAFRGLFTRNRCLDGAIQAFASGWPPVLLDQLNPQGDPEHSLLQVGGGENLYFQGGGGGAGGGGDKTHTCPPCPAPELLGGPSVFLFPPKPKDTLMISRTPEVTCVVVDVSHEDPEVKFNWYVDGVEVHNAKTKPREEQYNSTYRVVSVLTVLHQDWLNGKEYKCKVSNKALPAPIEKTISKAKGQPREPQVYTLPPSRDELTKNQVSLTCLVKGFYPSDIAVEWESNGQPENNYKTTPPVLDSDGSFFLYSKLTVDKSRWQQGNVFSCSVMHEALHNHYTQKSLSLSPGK

Experiment [3] deals with T1, GFRα4 isoform a (GFRα4a), Fc fusion …. The experiment can be described thus: phage ELISA, immobilized GFRα4a; first token of the cell (W weak binding).
Description: as §1
On the technique in general: In an ELISA, binding on a coated surface is turned into a signal by an enzyme label.

The next experiment addresses T3, CD19-Fc (UniProt P15391 20-291).
T3 construct: The words recombinant human Fc-fusions leave open whether human means the Fc or the antigen; also called recombinant human Fc-fusion of CD19 antigen; Fc-conjugated soluble CD19; not shown: human Fc
T3 sequence (looked up): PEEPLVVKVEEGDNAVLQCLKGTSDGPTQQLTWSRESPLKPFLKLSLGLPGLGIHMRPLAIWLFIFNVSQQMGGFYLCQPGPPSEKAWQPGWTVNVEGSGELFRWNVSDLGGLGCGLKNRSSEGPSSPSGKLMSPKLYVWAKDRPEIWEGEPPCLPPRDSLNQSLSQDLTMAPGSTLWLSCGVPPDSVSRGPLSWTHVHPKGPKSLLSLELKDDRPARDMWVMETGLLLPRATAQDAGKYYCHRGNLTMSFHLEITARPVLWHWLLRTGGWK
As to the kind of experiment: flow cytometry of CAR T cells stained with Fc-fusion antigen and anti-human Fc-specific antibodies. As to the method:
(§2) To create CAR-T expressing cells, human T cells from healthy donors were activated with anti-CD3 and anti-CD28 coated paramagnetic beads (DYNABEADS® Human T-Activator CD3/CD28, Life Technologies). One day following activation, cells were transduced with lentiviral vectors encoding GFRα4-directed CARs (original rabbit P4-10 and humanized versions), a CD19-directed control CAR (FMC63(cd8)bbz), or were left non-transduced (NTD). Cells were expanded and on day 7, cells were evaluated for cell-surface expression of the CARs by flow cytometry (FACSCalibur, BD Biosciences, Franklin Lakes, N.J.). Fluorescently-labeled goat anti-rabbit antibodies detected CAR P4-10, the original rabbit GFRα4-directed CAR, and fluorescently-labeled Protein L detected the murine CD19-directed CAR (FIG. 19A, “P410” and “19bbz”, respectively). Fluorescently-labeled rabbit anti-human antibodies (“RaH”) detected CARs 10, 14, 25, and 29 (FIG. 19B). Expression of cell-surface CARs were also detected by staining with antigen using recombinant human Fc-fusions of GFRα4 or CD19 antigen followed by detection of bound antigen with fluorescently-labeled anti-human Fc-specific antibodies (FIG. 19C). Appropriately, CD19-Fc only bound to CD19-directed CARs while GFRα4-Fc bound to both rabbit P4-10 and humanized P4-10 CARs but not the CD19-directed CAR.
(In flow cytometry, cells or beads pass a laser one at a time.)

Experiment [4] addresses T2, GFRα4 isoform b (GFRα4b), Fc fusion. The experiment can be described thus: flow cytometry of CAR T cells stained with Fc-fusion antigen and anti-human Fc-specific antibodies (FIG. 19C). The procedure: as §2
Experiment [5] addresses T4, human GFRα4 isoform a (GFRα4a) on transduced cells (human, UniProt Q9GZZ7-2 21-248).
T4 construct: whole, on cells; also called Nalm6 cells expressing the GFRα4 isoform a
T4 sequence (looked up): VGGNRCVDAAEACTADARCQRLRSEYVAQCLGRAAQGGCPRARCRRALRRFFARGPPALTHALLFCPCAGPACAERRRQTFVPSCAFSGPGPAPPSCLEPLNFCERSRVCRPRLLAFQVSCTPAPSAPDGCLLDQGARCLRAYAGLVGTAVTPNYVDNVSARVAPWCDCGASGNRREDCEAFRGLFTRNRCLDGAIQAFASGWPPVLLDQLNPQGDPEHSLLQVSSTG
As to the kind of experiment: flow cytometry and sorting of Nalm6 cells transduced with human GFRα4a-T2A-GFP. As to the method: Cytotoxicity of target cells by GFRα4-directed CAR-T cells was evaluated using a 51Cr release-assay. Target cells comprised either Nalm6 cells (a CD19-expressing B-cell precursor leukemia cell line (ATCC® CRL-3273TM)), Nalm6 cells expressing the GFRα4 isoform a (GFRα4a) or isoform b (GFRα4b), or TT cells (a human medullary thyroid cancer cell line (ATCC® CRL-1803TM)). Nalm6 cells expressing GFRα4 proteins were produced by transduction with lentiviral vectors encoding human GFRα4a-T2A-GFP or human GFRα4b-T2A-GFP (Milone et al. (2009) Molecular Therapy., 17: 1453-1464). […] P4-10 antibody comprised a full-length rabbit IgG containing the P4-10 rabbit variable regions and was a gift of Novartis Pharmaceuticals.

Experiment [6] addresses T2, GFRα4 isoform b (GFRα4b), Fc fusion. As to the kind of experiment: phage ELISA, immobilized GFRα4b against GFRα4a.
Description: as §1
(§3) Binding of the positive scFvs from this experiment were also screened for binding to GFRα4b (FIG. 7). […] As observed in previous ELISAs of this type with the original rabbit P4-10 expressed as an antibody fragment on phage, reactivity always appears greater against the GFRα4b isoform.

The target of experiment [7] is T1, GFRα4 isoform a (GFRα4a), Fc fusion …. The experiment can be described thus: phage ELISA, immobilized GFRα4a (FIG. 6).
Description: as §1, §3

B1: 3.H1m1.L3 (scFv)
scFv: QSALTQPASVSGSPGQSITISCTGTSAHKTYTVSWYQQHPGKAPKLMIYVKSDGSYNRPSGVSNRFSGSKSGNTASLTISGLQAEDEADYYCGADDNGGYVFGGGTKLTVLGGGSSRSSSSGGGGSGGGGQQSVKESGPGLVKPSETLSLTCAVSGFSLSRHALTWVRQPPGKGLEWIGAIDNAGTTYYASWAKSRVTISRNTDLHTVSLKLSSVTAADTAVYFCARVFYDINSGYYLDGMDLWGPGTLVTVSS
notes: pIII not in the entry; order Vλ-linker-VH; also called scFv 3; H1m.L3
B1: the binding result in experiment [1] is on record as “no binding”.

B2: 23.H1.L2m1 (scFv)
scFv: QFVLTQPPSASGTPGQRVTISCTLSSAHKTYTIDWYQQLPGTAPKLLIYVKSDGSYTKGTGVPDRFSGSSSGADRYLAISGLQSEDEADYYCGADDNGGYVFGGGTQLTVTGGGSSRSSSSGGGGSGGGGQVQLQESGPGLVKPSETLSLTCAVSGYSISRHALTWIRQPPGKGLEWIGAIDNAGTTYYASWAKSRVTISVDTSKNQFSLKLSSVTAADTAVYYCARVFYDINSGYYLDGMDLWGPGTLVTVSS
notes: pIII not in the entry; order Vλ-linker-VH; also called scFv 23
For B2, the binding result in experiment [2] and in experiment [3] was “binds” in each case.

B3: 9.H2.L1 (scFv)
scFv: QLVLTQSPSASASLGASVKLTCTLSSAHKTYTIAWHQQQPEKGPRYLMKVKSDGSYSKGDGIPDRFSGSSSGAERYLTISSLQSEDEADYYCGADDNGGYVFGGGTKLTVLGGGSSRSSSSGGGGSGGGGEVQLVESGGGLVQPGGSLRLSCAASGFTFSRHALTWVRQAPGKGLEWVSAIDNAGTTYYASWAKSRFTISRDNAKNSLYLQMNSLRAEDTAVYYCARVFYDINSGYYLDGMDLWGPGTLVTVSS
notes: pIII not in the entry; order Vλ-linker-VH; also called scFv 9
On to B3, for which the binding result in experiment [1] is “no binding”.

B4: 7.H2m1.L2 (scFv)
scFv: QSVLTQPPSASGTPGQRVTISCSGSSAHKTYTVNWYQQLPGTAPKLLIYVKSDGSYQRPSGVPDRFSGSKSGTSASLAISGLQSEDEADYYCGADDNGGYVFGGGTKLTVLGGGSSRSSSSGGGGSGGGGEQSVKESGGGLVQPGGSLRLSCAASGFTLSRHALTWVRQAPGKGLEWIGAIDNAGTTYYASWAKSRFTISRNTDLHTVYLQMNSLRAEDTAVYFCARVFYDINSGYYLDGMDLWGPGTLVTVSS
notes: pIII not in the entry; order Vλ-linker-VH; The printed entry has an E before QSVKE of the VH; also called scFv 7
Take B4: the binding result in experiment [1] was “no binding”.

B5: 15.H1m1.L1 (scFv)
scFv: QLVLTQSPSASASLGASVKLTCTLSSAHKTYTIAWHQQQPEKGPRYLMKVKSDGSYSKGDGIPDRFSGSSSGAERYLTISSLQSEDEADYYCGADDNGGYVFGGGTKLTVLGGGSSRSSSSGGGGSGGGGQQSVKESGPGLVKPSETLSLTCAVSGFSLSRHALTWVRQPPGKGLEWIGAIDNAGTTYYASWAKSRVTISRNTDLHTVSLKLSSVTAADTAVYFCARVFYDINSGYYLDGMDLWGPGTLVTVSS
notes: pIII not in the entry; order Vλ-linker-VH; also called scFv 15
Regarding B5, the binding result in experiment [1] is “no binding”.

B6: CAR P4-10, the original rabbit GFRα4-directed CAR (other)
VH: QSVKESEGGLFKPTDTLTLTCTVSGFSLSRHALTWVRQAPGNGLEWIGAIDNAGTTYYASWAKSRSTITRNTDLHTVTLKMTSLTASDTATYFCARVFYDINSGYYLDGMDLWGPGTLVTVSS
VL: QFVLTQSPSVSAALGASAKLTCTLSSAHKTYTIDWYQQQQGEAPRYLMQVKSDGSYTKGTGVPDRFSGSSSGADRYLIIPSVQADDEAGYVCGADDNGGYVFGGGTQLTVT
notes: Chimeric antigen receptor on transduced human T cells, one chain in fact; also called P410bbz; P4-10 CAR
Consider B6, for which the binding result was “no binding” in the experiment with CD19-Fc and “binds” in experiment [4].

B7: P4-10 antibody (full-length rabbit IgG containing the P4-10 rabbit variable regions) (antibody, V domains shown)
VH: B6 VH
VL: B6 VL
notes: Full-length rabbit IgG, lambda light chain; also called anti-GFRα4 P4-10 antibody; rabbit P4-10
As for B7, the binding result in experiment [5] is on record as “binds”.

B8: 5.H2.L2 (scFv)
scFv: QSVLTQPPSASGTPGQRVTISCSGSSAHKTYTVNWYQQLPGTAPKLLIYVKSDGSYQRPSGVPDRFSGSKSGTSASLAISGLQSEDEADYYCGADDNGGYVFGGGTKLTVLGGGSSRSSSSGGGGSGGGGEVQLVESGGGLVQPGGSLRLSCAASGFTFSRHALTWVRQAPGKGLEWVSAIDNAGTTYYASWAKSRFTISRDNAKNSLYLQMNSLRAEDTAVYYCARVFYDINSGYYLDGMDLWGPGTLVTVSS
notes: pIII not in the entry; order Vλ-linker-VH; also called scFv 5
For the molecule B8, the binding result in experiment [1] was “no binding”.

B9: 0.410HC.410LC (scFv)
scFv: QFVLTQSPSVSAALGASAKLTCTLSSAHKTYTIDWYQQQQGEAPRYLMQVKSDGSYTKGTGVPDRFSGSSSGADRYLIIPSVQADDEAGYVCGADDNGGYVFGGGTQLTVTGGGSSRSSSSGGGGSGGGGQSVKESEGGLFKPTDTLTLTCTVSGFSLSRHALTWVRQAPGNGLEWIGAIDNAGTTYYASWAKSRSTITRNTDLHTVTLKMTSLTASDTATYFCARVFYDINSGYYLDGMDLWGPGTLVTVSS
notes: pIII not in the entry; order Vλ-linker-VH; positive control; also called original rabbit P4-10 scFv; scFv 0
In the case of B9, the binding result in experiment [6] and in experiment [7] was “binds” throughout.
